The target in data set [1] is T1, Dnmt3a-CD (UniProt O88508 608-908). Kind of data set: competition (inhibition of methylation); 300 nM MGMT-ds1-f substrate, 2 uM enzyme, 25 uM AdoMet; BLI: 20 mM HEPES-NaOH pH 7.5, 100 mM KCl, 1 mM EDTA, 0.2 mM DTT, 100 uM AdoHcy, 5% glycerol, 0.02% Tween-20, 0.5 mg/mL BSA, 25 C; inhibition: buffer A (20 mM HEPES-NaOH pH 7.5, 100 mM KCl, 1 mM EDTA, 1 mM DTT) with 25 uM AdoMet, 37 C; FP: buffer A. The following applies: protein: recombinant, tags: N-terminal 6xHis, chain copies: 2.
T1 sequence (O88508 608-908): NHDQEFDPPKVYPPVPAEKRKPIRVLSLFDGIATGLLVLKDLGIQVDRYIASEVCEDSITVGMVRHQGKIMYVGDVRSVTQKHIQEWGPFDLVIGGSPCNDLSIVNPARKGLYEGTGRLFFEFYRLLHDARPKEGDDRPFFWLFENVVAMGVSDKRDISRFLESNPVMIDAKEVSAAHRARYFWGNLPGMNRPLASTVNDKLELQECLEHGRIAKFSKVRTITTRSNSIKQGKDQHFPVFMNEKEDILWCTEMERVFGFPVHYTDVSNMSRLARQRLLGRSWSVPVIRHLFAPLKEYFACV

The target of data set [2] is T1, Dnmt3a-CD. Kind of data set: BLI; 100 uM AdoHcy; BLI: 20 mM HEPES-NaOH pH 7.5, 100 mM KCl, 1 mM EDTA, 0.2 mM DTT, 100 uM AdoHcy, 5% glycerol, 0.02% Tween-20, 0.5 mg/mL BSA, 25 C; inhibition: buffer A (20 mM HEPES-NaOH pH 7.5, 100 mM KCl, 1 mM EDTA, 1 mM DTT) with 25 uM AdoMet, 37 C; FP: buffer A. The following applies: protein: recombinant, tags: N-terminal 6xHis, chain copies: 2. A general note: BLI is a label-free optical method that tracks binding on a fibre tip over time.

B1: MGMT-G4 (structured_DNA)
DNA: GGGCCGGGGCGCGCGGGGGCGGAG
As for B1, in the data set with Dnmt3a-CD [1] (G4, mixed hybrid (CD)), the IC50 – broadly, the point on the concentration scale where inhibition reaches its midpoint – stood at 610 ± 30 nM.

B2: MGMT-G4-mut (ssDNA)
DNA: GTGCCGGAGCGCGCGGAGGCGGAG
Consider B2, for which, in the data set with Dnmt3a-CD [1] (no G4 by CD), the IC50 turned out to be 590 ± 90 nM.

B3: MGMT-ds1-bio (dsDNA)
DNA 1: GGTCCTGCAGGCGCCCTCACTT
DNA 2: AAGTGAGGGCGCCTGCAGGACC
For B3, in the data set with Dnmt3a-CD [2] (label: 5' biotin on strand 1, blunt), the Kd (as a rule, the equilibrium constant for the complex coming apart) stood at 65 ± 2 nM.

B4: MGMT-ds2-bio (dsDNA)
DNA 1: CTCCGCCCCCGCGCGCCCCGGCCC
DNA 2: GGGCCGGGGCGCGCGGGGGCGGAG
Take B4: the Kd in the data set with Dnmt3a-CD [2] (label: 5' biotin on strand 1 (C-rich), blunt) stood at 15 ± 0.5 nM.

B5: MGMT-C-bio (ssDNA)
DNA: CTCCGCCCCCGCGCGCCCCGGCCC
For B5, the Kd with Dnmt3a-CD [2] (label: 5' biotin) stood at 211 ± 21 nM.

B6: non-specific control (no CpG) (ssDNA)
DNA: CTGAATACTACTTCCTACCCCTTACCTGAT
Consider B6, for which the IC50 with Dnmt3a-CD [1] amounted to 2400 ± 700 nM.

B7: MGMT-G4-bio (structured_DNA)
DNA: GGGCCGGGGCGCGCGGGGGCGGAG
For the molecule B7, the Kd with Dnmt3a-CD [2] (label: 5' biotin, G4, mixed hybrid (CD of unlabeled MGMT-G4)) came to 14 ± 0.4 nM.

For the origin of these results see publication PMC11843895, “Single-Molecule Nanopore Sequencing of the CpG Island from the Promoter of O6-Methylguanine-DNA Methyltransferase Provides Insights into the Mechanism of De Novo Methylation of G/C-Rich Regions”.
